In US20110189729:

Target: lambda integrase Int-h/218 h/218 mutant (substitutions not given) (Bacteriophage lambda) (UniProt P03700)
Experiment: cell_activity
Conditions: CHO-DG44

TCTGTTACAGGTCACTAATACCATCTAAGTAGTTGATTCATAGTGACTGCATATGTTGTGTTTTACAGTATTATGTAGTCTGTTTTTTATGCAAAATCTAATTTAATATATTGATATTTATATCATTTTACGTTTCTCGTTCAGCTTTTTTATACTAAGTTGGCATTATAAAAAAGCATTGCTTATCAATTTGTTGCAACGAACAGGTCACTATCAGTCAAAATAAAATCATTATTTGATTTC / GAAATCAAATAATGATTTTATTTTGACTGATAGTGACCTGTTCGTTGCAACAAATTGATAAGCAATGCTTTTTTATAATGCCAACTTAGTATAAAAAAGCTGAACGAGAAACGTAAAATGATATAAATATCAATATATTAAATTAGATTTTGCATAAAAAACAGACTACATAATACTGTAAAACACAACATATGCAGTCACTATGAATCAACTACTTAGATGGTATTAGTGACCTGTAACAGA / GCTGTTACAGGTCACTAATACCATCTATGTAGTTGATTCATATTGTCTGCATATCTTGTGTTTTACAGTATTATCTAGTCTGTTTTTTATCCAAAATCTAATTTATTATATTGATATTTATATCATTTTACGTTTCTCGTTCAGCTTTTTTATACTAACTTG / CAAGTTAGTATAAAAAAGCTGAACGAGAAACGTAAAATGATATAAATATCAATATAATAAATTAGATTTTGGATAAAAAACAGACTAGATAATACTGTAAAACACAAGATATGCAGACAATATGAATCAACTACATAGATGGTATTAGTGACCTGTAACAGC [attP ; attR.a]
activity (% fluorescent cells) (attP x attR.a, with IHF and XIS): 1.5

GCTGTTACAGGTCACTAATACCATCTACGTAGTTGATTCATATTGTCTGCATATCTTGTGTTTTACAGTATTATCTAGTCTGTTTTTTATCCAAAATCTAATTTATTATATTGATATTTATATCATTTTACGTTTCTCGTTCAGCTTTTTTATACTAAGTTGGCATTATAAAAAAGCATTGCTTATCAATTTGTTGCAACGAACAGGTCACTATCAGTCAAAATATAATCATTATTTGATTTC / GAAATCAAATAATGATTATATTTTGACTGATAGTGACCTGTTCGTTGCAACAAATTGATAAGCAATGCTTTTTTATAATGCCAACTTAGTATAAAAAAGCTGAACGAGAAACGTAAAATGATATAAATATCAATATAATAAATTAGATTTTGGATAAAAAACAGACTAGATAATACTGTAAAACACAAGATATGCAGACAATATGAATCAACTACGTAGATGGTATTAGTGACCTGTAACAGC / GCTGTTACAGGTCACTAATACCATCTACGTAGTTGATTCATATTGTCTGCATATCTTGTGTTTTACAGTATTATCTAGTCTGTTTTTTATCCAAAATCTAATTTATTATATTGATATTTATATCATTTTACGTTTCTCGTTCAGCTTTTTTATACTAAGTTGGCATTATAAAAAAGCATTGCTTATCAATTTGTTGCAACGAACAGGTCACTATCAGTCAAAATATAATCATTATTTGATTTC / GAAATCAAATAATGATTATATTTTGACTGATAGTGACCTGTTCGTTGCAACAAATTGATAAGCAATGCTTTTTTATAATGCCAACTTAGTATAAAAAAGCTGAACGAGAAACGTAAAATGATATAAATATCAATATAATAAATTAGATTTTGGATAAAAAACAGACTAGATAATACTGTAAAACACAAGATATGCAGACAATATGAATCAACTACGTAGATGGTATTAGTGACCTGTAACAGC [attP.b ; attP.b]
activity (% fluorescent cells) (attP.b x attP.b, with IHF, 0.4% without IHF plasmid, 2% in Example 2 cotransfection without IHF (p190)): 1.5

CTGCTTTTTTATACTAAGTTGGCATTATAAAAAAGCATTGCTTATCAATTTGTTGCAACGAACAGGTCACTATCAGTCAAAATAAAATCATTATTTGATTTC / GAAATCAAATAATGATTTTATTTTGACTGATAGTGACCTGTTCGTTGCAACAAATTGATAAGCAATGCTTTTTTATAATGCCAACTTAGTATAAAAAAGCAG / CTGCTTTTTTATACTAACTTG / CAAGTTAGTATAAAAAAGCAG [attL ; attB]
activity (% fluorescent cells) (attL x attB, with IHF and XIS, PCR verified): 2.3

TCTGTTACAGGTCACTAATACCATCTAAGTAGTTGATTCATAGTGACTGCATATGTTGTGTTTTACAGTATTATGTAGTCTGTTTTTTATGCAAAATCTAATTTAATATATTGATATTTATATCATTTTACGTTTCTCGTTCAGCTTTTTTATACTAAGTTGGCATTATAAAAAAGCATTGCTTATCAATTTGTTGCAACGAACAGGTCACTATCAGTCAAAATAAAATCATTATTTGATTTC / GAAATCAAATAATGATTTTATTTTGACTGATAGTGACCTGTTCGTTGCAACAAATTGATAAGCAATGCTTTTTTATAATGCCAACTTAGTATAAAAAAGCTGAACGAGAAACGTAAAATGATATAAATATCAATATATTAAATTAGATTTTGCATAAAAAACAGACTACATAATACTGTAAAACACAACATATGCAGTCACTATGAATCAACTACTTAGATGGTATTAGTGACCTGTAACAGA / GCTGTTACAGGTCACTAATACCATCTACGTAGTTGATTCATATTGTCTGCATATCTTGTGTTTTACAGTATTATCTAGTCTGTTTTTTATCCAAAATCTAATTTATTATATTGATATTTATATCATTTTACGTTTCTCGTTCAGCTTTTTTATACTAACTTG / CAAGTTAGTATAAAAAAGCTGAACGAGAAACGTAAAATGATATAAATATCAATATAATAAATTAGATTTTGGATAAAAAACAGACTAGATAATACTGTAAAACACAAGATATGCAGACAATATGAATCAACTACGTAGATGGTATTAGTGACCTGTAACAGC [attP ; attR.b]
activity (% fluorescent cells) (attP x attR.b, with IHF and XIS): 1.1

CTGCTTTTTTATACTAAGTTGGCATTATAAAAAAGCATTGCTTATCAATTTGTTGCAACGAACAGGTCACTATCAGTCAAAATATAATCATTATTTGATTTC / GAAATCAAATAATGATTATATTTTGACTGATAGTGACCTGTTCGTTGCAACAAATTGATAAGCAATGCTTTTTTATAATGCCAACTTAGTATAAAAAAGCAG / GCTGTTACAGGTCACTAATACCATCTACGTAGTTGATTCATATTGTCTGCATATCTTGTGTTTTACAGTATTATCTAGTCTGTTTTTTATCCAAAATCTAATTTATTATATTGATATTTATATCATTTTACGTTTCTCGTTCAGCTTTTTTATACTAACTTG / CAAGTTAGTATAAAAAAGCTGAACGAGAAACGTAAAATGATATAAATATCAATATAATAAATTAGATTTTGGATAAAAAACAGACTAGATAATACTGTAAAACACAAGATATGCAGACAATATGAATCAACTACGTAGATGGTATTAGTGACCTGTAACAGC [attL.a ; attR.b]
activity (% fluorescent cells) (attL.a x attR.b, with IHF and XIS, PCR verified): 1.2

CTGCTTTTTTATACTAAGTTGGCATTATAAAAAAGCATTGCTTATCAATTTGTTGCAACGAACAGGTCACTATCAGTCAAAATAAAATCATTATTTGATTTC / GAAATCAAATAATGATTTTATTTTGACTGATAGTGACCTGTTCGTTGCAACAAATTGATAAGCAATGCTTTTTTATAATGCCAACTTAGTATAAAAAAGCAG / TCTGTTACAGGTCACTAATACCATCTAAGTAGTTGATTCATAGTGACTGCATATGTTGTGTTTTACAGTATTATGTAGTCTGTTTTTTATGCAAAATCTAATTTAATATATTGATATTTATATCATTTTACGTTTCTCGTTCAGCTTTTTTATACTAACTTG / CAAGTTAGTATAAAAAAGCTGAACGAGAAACGTAAAATGATATAAATATCAATATATTAAATTAGATTTTGCATAAAAAACAGACTACATAATACTGTAAAACACAACATATGCAGTCACTATGAATCAACTACTTAGATGGTATTAGTGACCTGTAACAGA [attL ; attR]
activity (% fluorescent cells) (attL x attR, with IHF and XIS, PCR verified): 3.2
